Results on 4 molecules are retold here after publication PMC5007356.

The target of experiment [1] is GFP-Spd2 (Drosophila melanogaster). Description: co-IP; anti-GFP immunoprecipitation with GFP-Trap-A beads from D. mel-2 cell lysates, 2 h at 4 °C; 10 mM Tris-HCl pH 7.5, 150 mM NaCl, 0.5 mM EDTA, NP40; immunoblot; band intensities quantified in ImageJ. In general terms: In western blotting, separated proteins are transferred to a membrane and probed.
For experiment [2], the target named is GFP-Cdc27 (Drosophila melanogaster). The experiment is described as above.

Consider “Fzr (endogenous) (from UniProt O18402 1-478) (natural protein)”, for which, in experiment [1], the precipitation efficiency (percent of input co-precipitated) was found to be 14.5%.
Consider “Spd2 (endogenous) (from UniProt Q9VV79 1-1146) (natural protein)”, for which the co-IP efficiency in experiment [2] turned out to be 2.7e-07.
Molecule Cdc27 (endogenous) (natural protein) registered a precipitation efficiency (percent of input co-precipitated) in experiment [1] of 4.55%.

B1: Fzy (endogenous) (natural protein)
chain: MSQFNFVSDLQNALIMDGETRGPAPRWKKKLEASLNGSVNTTRSVLSVSYNTSFSGVQAPTKTPGKSSEGKTKKSNTTPSKTPGGGDRFIPNRAATNFELAHFLVNKDSGDKSDEENDKATSSNSNESNVQASAHKGDRQKLISEVAQVGDSKGGRILCYQNKAPAAPETHNNPLKVVYSIKTPISTKSGSRYIPTTSERILDAPDFINDYYLNLMDWSADNIVAVALGSCVYLWNAQTGNIEQLTEFEEGDYAGSLSWIQEGQILAIGNSTGAVELWDCSKVKRLRVMDGHSARVGSLAWNSFLVSSGSRDGTIVHHDVRAREHKLSTLSGHTQEVCGLKWSTDFKYLASGGNDNLVNVWSAASGGVGTATDPLHKFNDHQAAVRALAWCPWQPSTLASGGGTADRCIKFWNVNNGTLMKSVDSKSQVCSLLFSRHYKELISAHGFANNQLTIWKYPTMVKQADLTGHTSRVLQMAMSPDGSTVISAGADETLRLWNCFAPDPLASKKAVSTSKGKQSVFRQSIR
B1 came in with a precipitation efficiency (percent of input co-precipitated) in experiment [1] of 2.43%.
